# Measured values reported in patent publication US20230295259A1 (Protagonist Therapeutics, Inc., priority 2020, published 2023).
# Positions of bridges follow the written chain, without caps; N, C: chain ends. Non-standard residues stand in square brackets, D forms with d. Groups on a side chain read outwards from the residue. *: point of attachment. PEG12 = NCCOCCOCCOCCOCCOCCOCCOCCOCCOCCOCCOCCOCCC(=O)O; Dip = N[C@H](C(=O)O)C(c1ccccc1)c1ccccc1; Palmitoyl = CCCCCCCCCCCCCCCC(=O)*; β3hF = N[C@H](CC(=O)O)Cc1ccccc1; Isovaleryl = CC(C)CC(=O)*; Dap = NC[C@H](N)C(=O)O
# T1: human ferroportin (SLC40A1) fused in frame with GFP, stably expressed in HEK293 cells (human, UniProt Q9NP59 1-571)
# T1 sequence (looked up): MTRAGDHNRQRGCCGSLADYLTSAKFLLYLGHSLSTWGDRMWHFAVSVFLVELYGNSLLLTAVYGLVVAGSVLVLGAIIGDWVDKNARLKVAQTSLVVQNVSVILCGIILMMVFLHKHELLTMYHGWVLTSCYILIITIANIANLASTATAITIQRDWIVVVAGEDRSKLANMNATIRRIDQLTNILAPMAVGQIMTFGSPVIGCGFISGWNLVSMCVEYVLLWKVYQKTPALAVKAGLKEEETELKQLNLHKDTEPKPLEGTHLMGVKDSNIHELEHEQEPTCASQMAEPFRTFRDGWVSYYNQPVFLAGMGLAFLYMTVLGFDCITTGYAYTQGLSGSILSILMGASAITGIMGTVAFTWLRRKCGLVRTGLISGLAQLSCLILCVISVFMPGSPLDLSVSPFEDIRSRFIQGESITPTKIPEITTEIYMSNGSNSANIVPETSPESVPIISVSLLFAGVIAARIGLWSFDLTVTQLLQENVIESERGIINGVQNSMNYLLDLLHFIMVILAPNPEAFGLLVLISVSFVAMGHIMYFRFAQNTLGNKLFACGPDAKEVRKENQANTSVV
# T2: ferroportin endogenously expressed on T47D human breast carcinoma cells (human, UniProt Q9NP59 1-571)
# T2 sequence (looked up): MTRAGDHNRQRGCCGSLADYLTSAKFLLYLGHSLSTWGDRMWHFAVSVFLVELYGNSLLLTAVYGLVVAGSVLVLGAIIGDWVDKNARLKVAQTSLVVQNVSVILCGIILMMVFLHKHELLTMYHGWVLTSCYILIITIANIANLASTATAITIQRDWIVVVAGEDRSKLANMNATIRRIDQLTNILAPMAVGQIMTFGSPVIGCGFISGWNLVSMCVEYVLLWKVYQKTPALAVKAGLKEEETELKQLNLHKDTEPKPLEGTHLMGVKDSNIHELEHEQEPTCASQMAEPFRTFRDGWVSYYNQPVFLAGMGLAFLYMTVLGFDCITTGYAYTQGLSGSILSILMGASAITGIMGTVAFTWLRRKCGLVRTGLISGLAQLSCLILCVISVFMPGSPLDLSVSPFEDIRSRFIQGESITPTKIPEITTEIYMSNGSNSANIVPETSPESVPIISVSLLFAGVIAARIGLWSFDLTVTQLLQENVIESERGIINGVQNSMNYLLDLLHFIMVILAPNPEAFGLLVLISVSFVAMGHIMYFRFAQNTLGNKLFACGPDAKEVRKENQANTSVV
# Experiments:
# Assay in all cases: cell-based or functional assay
# [1] = target: T1, human ferroportin (SLC40A1) fused in …
# [2] = target: T1, human ferroportin (SLC40A1) fused in …; remark: listed apart in the source
# [3] = target: T2, ferroportin endogenously expressed on …
Binder,FPN EC50 [1],further results
XETHXPCIXXXC (Isovaleric Acid-E-T-H-[Dpa]-P-C-I-[Lys(1PEG2_1PEG2_Dap_C18_Diacid)]-[bhPhe]-[(D)Lys]-C-NH2) [Compound 278],4.3 nM,–
XXTHXPCIXXXC (Isovaleric Acid-[Glu_OMe]-T-H-[Dpa]-P-C-I-[Lys(1PEG2_1PEG2_Dap_C18_Diacid)]-[bhPhe]-[(D)Lys]-C-NH2) [Compound 279],11.4 nM,–
Isovaleryl-ETH[Dip]PCIK([PEG12-Palmitoyl])[β3hF]K(PEG40KB)RC-NH2 (disulfide 6-12 (inferred)) [Compound 295],1780 nM,–
"Isovaleryl-ETH[Dip]PCIK(PEG40KB)[β3hF]K([PEG12-Palmitoyl])RC-NH2 (disulfide 6-12 (inferred)) [Compound 296, listing 1 of 2 here]",1080 nM,–
XETHXPCIXXXC (Isovaleric Acid-E-T-H-[Dpa]-P-C-I-[Lys(1PEG2_1PEG2_Ahx_C18_Diacid)]-[bhPhe]-[(D)Lys(PEG40KB-C-NH2)) [Compound 297],1360 nM,–
XETHXPCIXXXC (Isovaleric Acid-E-T-H-[Dpa]-P-C-I-[Lys(Ahx_Palm)]-[bhPhe]-[(D)Lys(PEG20K)]-C-NH2) [Compound 312],32.6 nM,–
XETHXPCIXXXC (Isovaleric Acid-E-T-H-[Dpa]-P-C-I-[Lys(1PEG2_1PEG2_Ahx_Palm)]-[bhPhe]-[(D)Lys(PEG20K-C-NH2)) [Compound 314],357 nM,–
Isovaleryl-ET[Dap][Dip]PCI[dK][β3hF]K([PEG12-Palmitoyl])RC-NH2 (disulfide 6-12 (inferred)) [Compound 603],–,"FPN IC50 (nM), grade: *=>500 nM [2]: > 500 nM"
XEXHXPCIXXXXC (not fully specified; [Isovaleric Acid]-E-S-H-[Dpa]-P-C-I-[(D)Lys]-[aMePhe]-[Lys(PEG12_Palm)]-[(D)Lys]-C-NH2) [Compound 611],–,"FPN IC50 (nM), grade: *=>500 nM [2]: > 500 nM"
"Isovaleryl-ETH[Dip]PCIK(PEG40KB)[β3hF]K([PEG12-Palmitoyl])RC-NH2 (disulfide 6-12 (inferred)) [Compound 296, listing 2 of 2 here]",–,IC50: T47D Internalization MSA [3]: 109 nM
